T1: BCMA on cells (JEKO cells, plasmablasts) (human, UniProt Q02223 1-184)
T1 sequence (looked up): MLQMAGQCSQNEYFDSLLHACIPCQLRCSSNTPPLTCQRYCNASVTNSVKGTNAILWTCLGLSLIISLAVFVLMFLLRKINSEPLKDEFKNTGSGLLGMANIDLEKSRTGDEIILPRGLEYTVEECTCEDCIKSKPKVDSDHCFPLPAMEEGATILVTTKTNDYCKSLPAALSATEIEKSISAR

T2: Human BCMA, TPP208 (human, UniProt Q02223 1-54, limits assumed)
T2 construct: also called Antigen 1
T2 sequence (looked up): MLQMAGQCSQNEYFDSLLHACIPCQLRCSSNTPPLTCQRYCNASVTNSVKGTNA

T3: BCMA (human, UniProt Q02223 1-54, limits assumed)
T3 construct: also called B cell maturation antigen; TNFRSF17
T3 sequence (looked up): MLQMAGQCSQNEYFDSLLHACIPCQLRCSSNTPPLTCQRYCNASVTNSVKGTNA


Columns and labels:
[1] = target: T1, BCMA on cells (JEKO cells, plasmablasts); assay: cell-based or functional assay
[2] = target: T1, BCMA on cells (JEKO cells, plasmablasts); assay: cell-based or functional assay; remark: listed apart in the source
Human BCMA, TPP208 [3] = target: T2, Human BCMA, TPP208; assay: SPR (Biacore T200), single-cycle kinetics, antibody captured on anti-human IgG, antigen injected; sensorgram of sample stored at pH 8, 40 C compared with the non-stressed standard
Experimental: (§1) SPR experiments were performed using a Biacore T200 system (GE Healthcare, Uppsala, Sweden) with analysis and sample compartment temperatures set at 25° C. and 7° C. respectively.
(§2) Anti-Human IgG (from anti-human IgG Capture Kit) was amine coupled to the surface of a CM5 chip according to the manufacturer's instructions. Molecule bispecific antibodies diluted to 1 μg/mL in running buffer were captured on the chip surface in a 60 s injection. Following the single-cycle kinetics procedure, antigen was next injected five times (30 s per injection) at incrementally increasing concentrations at a flow rate of 30 μL/min. Antigen concentrations ranged from 0.08 to 50 nM for BCMA and between 12.7 to 1000 nM for CD3. A 300 s dissociation time was added after the last antigen injection. Following each experiment, all flow cells were regenerated using a 30 s injection of 3M MgCl₂.
(§3) Prior to analysis, data were double referenced by first subtracting data from a reference flow cell and then subtracting a blank cycle where buffer was injected instead of antigen. The sensorgram comparison analysis was implemented using a Biacore T200 (software version 3.0). All data were normalized with respect to the response where 100% reflects the maximum binding obtained during injection and 0% reflects the baseline. Average and ±3 standard deviation (SD) sensorgrams were calculated from ten or more independent sensorgrams of each molecule's non-stressed material (standard). For quantitation of binding similarities of the stressed samples against the corresponding non-stressed standard, sample sensorgrams were co-evaluated with the sensorgrams of the standard. The degree of similarity was calculated based on how many sample data points fell inside or outside the ±3 standard deviation limits according to Equation 2, where SSQ is the sum of squares (Karlsson, R, Pol, E., and Frostell, A. (2016); Analytical Biochemistry 502, 53-63).

Human CD3ED, TPP401 [4] = target: T4, Human CD3ED, TPP401 (human, UniProt P07766 23-126; P04234 22-105); assay: as above
T4 construct: 'CD3ED' is read here as the CD3 epsilon/delta pair; also called Antigen 2
Experimental: as §1, §2, §3

Human BCMA, TPP208 [5] = target: T2, Human BCMA, TPP208; assay: SPR (Biacore T200), single-cycle kinetics, antibody captured on anti-human IgG, antigen injected; sensorgram of sample stored at pH 6 with tert-butyl peroxide, 40 C compared with the non-stressed standard
Experimental: as §1, §2, §3

Human CD3ED, TPP401 [6] = target: T4, Human CD3ED, TPP401; assay: as above
Experimental: as §1, §2, §3

[7] = target: T1, BCMA on cells (JEKO cells, plasmablasts); assay: cell-based or functional assay; remark: listed apart in the source
Human BCMA, TPP208 [8] = target: T2, Human BCMA, TPP208; assay: SPR (Biacore T200), single-cycle kinetics, antibody captured on anti-human IgG, antigen injected; sensorgram of sample stored at pH 4, 40 C compared with the non-stressed standard
Experimental: as §1, §2, §3

Human CD3ED, TPP401 [9] = target: T4, Human CD3ED, TPP401; assay: as above
Experimental: as §1, §2, §3

BCMA = target: T3, BCMA
Human BCMA, TPP208 [10] = target: T2, Human BCMA, TPP208; assay: SPR (Biacore T200), single-cycle kinetics, antibody captured on anti-human IgG, antigen injected; sensorgram of sample stored at pH 6, 40 C compared with the non-stressed standard
Experimental: as §1, §2, §3

Human CD3ED, TPP401 [11] = target: T4, Human CD3ED, TPP401; assay: as above
Experimental: as §1, §2, §3

[12] = target: T1, BCMA on cells (JEKO cells, plasmablasts); assay: cell-based or functional assay; remark: listed apart in the source
[13] = target: T1, BCMA on cells (JEKO cells, plasmablasts); assay: cell-based or functional assay; remark: listed apart in the source

T4 sequence (P07766 23-126, chain 1 of 2): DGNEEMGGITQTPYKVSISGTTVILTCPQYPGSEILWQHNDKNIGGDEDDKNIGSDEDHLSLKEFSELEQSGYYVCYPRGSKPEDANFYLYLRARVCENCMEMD
T4 sequence (P04234 22-105, chain 2 of 2): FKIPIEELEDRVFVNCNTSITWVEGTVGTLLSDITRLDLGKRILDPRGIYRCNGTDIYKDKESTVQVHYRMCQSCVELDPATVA

| Binder | EC50 PB killing (nM), AAV-1 (n = 1) [1] [nM] | EC50 for JEKO cell killing (nM), T cell-mediated, annexin V, 20 h, T:E 1:2 [2] [nM] | pH 8 SPR % similarity-BCMA (Human BCMA, TPP208 [3]) [%] | pH 8 SPR % similarity-CD3 (Human CD3ED, TPP401 [4]) [%] | pH 6-TBP SPR % similarity-BCMA (Human BCMA, TPP208 [5]) [%] | pH 6-TBP SPR % similarity-CD3 (Human CD3ED, TPP401 [6]) [%] | EC50 for BM plasmablast killing (nM), bone marrow mononuclear cells, 24 h [7] [nM] | pH 4 SPR % similarity-BCMA (Human BCMA, TPP208 [8]) [%] | pH 4 SPR % similarity-CD3 (Human CD3ED, TPP401 [9]) [%] | Kd (BCMA) [nM] | pH 6 SPR % similarity-BCMA (Human BCMA, TPP208 [10]) [%] | pH 6 SPR % similarity-CD3 (Human CD3ED, TPP401 [11]) [%] | further results |
| --- | --- | --- | --- | --- | --- | --- | --- | --- | --- | --- | --- | --- | --- |
| Mab101 (bispecific antibody, human IgG1, L234A L235A, also called BCMA TCE; BCMA T cell engager) heavy 1: not shown heavy 2: not shown light 1: not shown light 2: EVQLLESGGGLVQPGGSLRLSCAASGFTFSTYAMNWVRQAPGKGLEWVSRIRSKYNNYATYYADSVKGRFTISRDDSKNTLYLQMNSLRAEDTAVYYCVRHGNFGNSYVSWFAYWGQGTLVTVSSASVAAPSVFIFPPSDEQLKSGTASVVCLLNNFYPREAKVQWKVDNALQSGNSQESVTEQDSKDSTYSLSSTLTLSKADYEKHKVYACEVTHQGLSSPVTKSFNRGEC | 0.236 | 5.72 | 99.9 | 71.5 | 82.5 | 75.3 | 0.266 | 100 | 99.9 | 1.1 | 100 | 100 | EC50 PB killing (nM), healthy volunteers (n = 2) [1]: 0.257 nM |
| CC-93269 (bispecific antibody, human IgG1, kappa, L234A L235A, also called 42-TCBcv; BCMA TCE) heavy 1: not shown heavy 2: EVQLLESGGGLVQPGGSLRLSCAASGFTFSDNAMGWVRQAPGKGLEWVSAISGPGSSTYYADSVKGRFTISRDNSKNTLYLQMNSLRAEDTAVYYCAKVLGWFDYWGQGTLVTVSSASTKGPSVFPLAPSSKSTSGGTAALGCLVEDYFPEPVTVSWNSGALTSGVHTFPAVLQSSGLYSLSSVVTVPSSSLGTQTYICNVNHKPSNTKVDEKVEPKSCDKTHTCPPCPAPEAAGGPSVFLFPPKPKDTLMISRTPEVTCVVVDVSHEDPEVKFNWYVDGVEVHNAKTKPREEQYNSTYRVVSVLTVLHQDWLNGKEYKCKVSNKALGAPIEKTISKAKGQPREPQVCTLPPSRDELTKNQVSLSCAVKGFYPSDIAVEWESNGQPENNYKTTPPVLDSDGSFFLVSKLTVDKSRWQQGNVFSCSVMHEALHNHYTQKSLSLSPGK light 1: EIVLTQSPGTLSLSPGERATLSCRASQSVSDEYLSWYQQKPGQAPRLLIHSASTRATGIPDRFSGSGSGTDFTLAISRLEPEDFAVYYCQQYGYPPDFTFGQGTKVEIKRTVAAPSVFIFPPSDRKLKSGTASVVCLLNNFYPREAKVQWKVDNALQSGNSQESVTEQDSKDSTYSLSSTLTLSKADYEKHKVYACEVTHQGLSSPVTKSFNRGEC light 2: EVQLLESGGGLVQPGGSLRLSCAASGFTFSTYAMNWVRQAPGKGLEWVSRIRSKYNNYATYYADSVKGRFTISRDDSKNTLYLQMNSLRAEDTAVYYCVRHGNFGNSYVSWFAYWGQGTLVTVSSASVAAPSVFIFPPSDEQLKSGTASVVCLLNNFYPREAKVQWKVDNALQSGNSQESVTEQDSKDSTYSLSSTLTLSKADYEKHKVYACEVTHQGLSSPVTKSFNRGEC | 0.01 | 2.79 | – | – | – | – | 0.0201 | – | – | 0.14 | – | – | EC50 PB killing (nM), healthy volunteers (n = 6) [1]: 0.029 nM; Plasmablast depletion EC50 (nM), PBMC from healthy volunteers, soluble BCMA 0 ng/ml [12]: 0.005 nM; Plasmablast depletion EC50 (nM), PBMC from healthy volunteers, soluble BCMA 16.8 ng/ml [12]: 0.025 nM; Plasmablast depletion EC50 (nM), PBMC from healthy volunteers, soluble BCMA 33.6 ng/ml [12]: 0.13 nM; Plasmablast depletion EC50 (nM), PBMC from healthy volunteers, soluble BCMA 67.6 ng/ml [12]: 0.32 nM; EC50 for plasmablast killing in AAV, PBMC, 24 h [13]: 0.007 nM; EC50 for plasmablast killing in RA, PBMC, 24 h [13]: 0.001 nM; EC50 for plasmablast killing in SLE (n=5), PBMC, 24 h [13]: 0.01 nM; EC50 for plasmablast killing in healthy volunteers (n=12), PBMC, 24 h [13]: 0.005 nM |
| 22-TCBcv (bispecific antibody, human IgG1, kappa, L234A L235A) heavy 1: not shown heavy 2: EVQLLESGGGLVQPGGSLRLSCAASGFTFSDNAMGWVRQAPGKGLEWVSAISGPGSSTYYADSVKGRFTISRDNSKNTLYLQMNSLRAEDTAVYYCAKVLGWFDYWGQGTLVTVSSASTKGPSVFPLAPSSKSTSGGTAALGCLVEDYFPEPVTVSWNSGALTSGVHTFPAVLQSSGLYSLSSVVTVPSSSLGTQTYICNVNHKPSNTKVDEKVEPKSCDKTHTCPPCPAPEAAGGPSVFLFPPKPKDTLMISRTPEVTCVVVDVSHEDPEVKFNWYVDGVEVHNAKTKPREEQYNSTYRVVSVLTVLHQDWLNGKEYKCKVSNKALGAPIEKTISKAKGQPREPQVCTLPPSRDELTKNQVSLSCAVKGFYPSDIAVEWESNGQPENNYKTTPPVLDSDGSFFLVSKLTVDKSRWQQGNVFSCSVMHEALHNHYTQKSLSLSPGK light 1: EIVLTQSPGTLSLSPGERATLSCRASQSVSSYYLAWYQQKPGQAPRLLISGAGSRATGIPDRFSGSGSGTDFTLTISRLEPEDFAVYYCQQYGYPPDFTFGQGTKVEIKRTVAAPSVFIFPPSDRKLKSGTASVVCLLNNFYPREAKVQWKVDNALQSGNSQESVTEQDSKDSTYSLSSTLTLSKADYEKHKVYACEVTHQGLSSPVTKSFNRGEC light 2: EVQLLESGGGLVQPGGSLRLSCAASGFTFSTYAMNWVRQAPGKGLEWVSRIRSKYNNYATYYADSVKGRFTISRDDSKNTLYLQMNSLRAEDTAVYYCVRHGNFGNSYVSWFAYWGQGTLVTVSSASVAAPSVFIFPPSDEQLKSGTASVVCLLNNFYPREAKVQWKVDNALQSGNSQESVTEQDSKDSTYSLSSTLTLSKADYEKHKVYACEVTHQGLSSPVTKSFNRGEC | – | – | 95.8 | 59.5 | 71.9 | 58.5 | – | 84.8 | 99.6 | – | 99.8 | 99.5 | – |
| 83A10-TCBcv (bispecific antibody, human IgG1, kappa, L234A L235A) heavy 1: not shown heavy 2: not shown light 1: not shown light 2: EVQLLESGGGLVQPGGSLRLSCAASGFTFSTYAMNWVRQAPGKGLEWVSRIRSKYNNYATYYADSVKGRFTISRDDSKNTLYLQMNSLRAEDTAVYYCVRHGNFGNSYVSWFAYWGQGTLVTVSSASVAAPSVFIFPPSDEQLKSGTASVVCLLNNFYPREAKVQWKVDNALQSGNSQESVTEQDSKDSTYSLSSTLTLSKADYEKHKVYACEVTHQGLSSPVTKSFNRGEC | – | – | 90.8 | 57.5 | 72 | 59.7 | – | 99.4 | 100 | – | 100 | 99.9 | – |

— patent US20240052064A1 (Bristol-Myers Squibb, published 2024)
